Measured values published in patent US20140080766A1 (MIT, published 2014).

Biological target: C7LLO (CEA-binding Fn3 - listeriolysin O fusion protein)

B1: carcinoembryonic antigen (CEA) on HT-1080(CEA) and HT-29 cells (other, human, UniProt P06731 35-685, looked up)
chain: KLTIESTPFNVAEGKEVLLLVHNLPQHLFGYSWYKGERVDGNRQIIGYVIGTQQATPGPAYSGREIIYPNASLLIQNIIQNDTGFYTLHVIKSDLVNEEATGQFRVYPELPKPSISSNNSKPVEDKDAVAFTCEPETQDATYLWWVNNQSLPVSPRLQLSNGNRTLTLFNVTRNDTASYKCETQNPVSARRSDSVILNVLYGPDAPTISPLNTSYRSGENLNLSCHAASNPPAQYSWFVNGTFQQSTQELFIPNITVNNSGSYTCQAHNSDTGLNRTTVTTITVYAEPPKPFITSNNSNPVEDEDAVALTCEPEIQNTTYLWWVNNQSLPVSPRLQLSNDNRTLTLLSVTRNDVGPYECGIQNELSVDHSDPVILNVLYGPDDPTISPSYTYYRPGVNLSLSCHAASNPPAQYSWLIDGNIQQHTQELFISNITEKNSGLYTCQANNSASGHSRTTVKTITVSAELPKPSISSNNSKPVEDKDAVAFTCEPEAQNTTYLWWVNGQSLPVSPRLQLSNGNRTLTLFNVTRNDARAYVCGIQNSVSANRSDPVTLDVLYGPDTPIISPPDSSYLSGANLNLSCHSASNPSPQYSWRINGIPQQHTQVLFIAKITPNNNGTYACFVSNLATGRNNSIVKSITVSASGTSPGLSA
Work on B1 yielded a Kd of 4.09 nM.
